Data on two molecules can be found in PMC10866546, “Pseudomonas effector AvrB is a glycosyltransferase that rhamnosylates plant guardee protein RIN4” (Science Advances, 2024).

The assay concerns the target T1, AvrB (WT), C-terminal 6xHis tag (P. syringae, UniProt P13835 1-321).
T1 construct: AvrB, type III secretion system effector of Pseudomonas syringae; cDNA in pET-29b; source: E. coli BL21 (DE3), purified (Ni2+-NTA)
Nature of the assay: pull-down; GST-tagged bait (10 μg) and prey (10 μg) with 10 μl glutathione agarose resin in 500 μl of 25 mM Hepes pH 7.4, 150 mM NaCl, 1 mM DTT, 0.1% Triton X-100, 5 mg BSA for blocking; 4°C, 30 min; three washes; SDS-PAGE, Coomassie staining. The conditions noted are these: both partners purified.

B1: GST-RIN4 T166A (natural protein)
chain: MARSNVPKFGNWEAEENVPYTAYFDKARKTRAPGSKIMNPNDPEYNSDSQSQAPPHPPSSRTKPEQVDTVRRSREHMRSREESELKQFGDAGGSSNEAANKRQGRASQNNSYDNKSPLHKNSYDGTGKSRPKPTNLRADESPEKVTVVPKFGDWDENNPSSADGYAHIFNKVREERSSGANVSGSSRTPTHQSSRNPNNTSSCCCFGFGGK
notes: source: E. coli BL21 (DE3), purified (Ni2+-NTA)
For the molecule B1, the binding result is listed as “binds”.

B2: GST-RIN4 T166E (natural protein)
chain: MARSNVPKFGNWEAEENVPYTAYFDKARKTRAPGSKIMNPNDPEYNSDSQSQAPPHPPSSRTKPEQVDTVRRSREHMRSREESELKQFGDAGGSSNEAANKRQGRASQNNSYDNKSPLHKNSYDGTGKSRPKPTNLRADESPEKVTVVPKFGDWDENNPSSADGYEHIFNKVREERSSGANVSGSSRTPTHQSSRNPNNTSSCCCFGFGGK
notes: as for B1
For the molecule B2, the binding result was “binds”.
